Reference: patent US20260364215A1, “Radiopharmaceutical Compositions Targeting Ephrin Type-A Receptor 2 and Uses Thereof” (PeptiDream Inc., priority 2022, published 2026)
Where two headings read alike, the source gives them in different places. Numbered stars: 1 amine (or outer) side, 2 acyl side, 3 side chain; on linkers, the order of the positions; unused ones are H or OH. Bridge positions count the residues as written; N and C are the ends. Square brackets hold non-standard residues; d marks the D form. Side chains are listed from the residue outwards. Peptide text beside a SMILES is read from it. * marks the point of attachment. DOTA(Lu) = O=C1CN2CCN3CCN(CC(=O)*)CCN(CC2)CC(=O)[O][Lu]([O]1)[O]C(=O)C3; X4 = CC(C)(C)C[C@H](CNCCCC[C@H](N[*:1])C(=O)[*:2])N[*:3]; DOTA = O=C(O)CN1CCN(CC(=O)O)CCN(CC(=O)*)CCN(CC(=O)O)CC1; Trp(1-Me,7-Cl) = Cn1cc(C[C@H](N)C(=O)O)c2cccc(Cl)c21; Piperazinyl(4-CH2COOH) = O=C(O)CN1CCN(*)CC1; Trp(1-Me) = Cn1cc(C[C@H](N)C(=O)O)c2ccccc21; PEG8 = NCCOCCOCCOCCOCCOCCOCCOCCOCCC(=O)O; d(tBuAla) = CC(C)(C)C[C@@H](N)C(=O)O; NMe3Pal = CN[C@@H](Cc1cccnc1)C(=O)O; NMeF = CN[C@@H](Cc1ccccc1)C(=O)O; Gly(cBu) = N[C@H](C(=O)O)C1CCC1; NMeE = CN[C@@H](CCC(=O)O)C(=O)O; Aad = N[C@@H](CCCC(=O)O)C(=O)O; AEEA = NCCOCCOCC(=O)O; CO = O=C([*:1])[*:2]; βAla = NCCC(=O)O

Key:
[1] = Plasma stability (% remaining of test compound in CD-1 (ICR) mouse plasma at 37 °C; Example C1); type: in vitro ADME; conditions: for % Remaining Mouse: 0 min; for remaining at 2 h, 2 µM: pH 7.4, 120 min; for half-life at 2 µM: pH 7.4, read-out: T1/2 (min) Mouse
Experimental: Example C1. Plasma Stability
The pooled frozen CD-1 (ICR) mouse plasma was thawed in a water bath at 37 °C prior to experiment. Plasma was centrifuged at 4000 rpm for 5 min and the clots were removed if any. pH was adjusted to 7.4±0.1 if required.
Plasma (98 μL) and test compounds (2 μL, 100 μM, in DMSO) or reference compound propantheline bromide (2 μL, 100 μM in 40% v/v MeOH/H2O) were added to the individual wells of a 96-well microtiter plate in duplicate. The plate was incubated at 37 °C. During the incubation, aliquots were withdrawn at 0, 10, 30, 60, 120, and 300 minutes. 100 μL 4% H3PO4 and 800 μL of stop solution (200 ng/mL tolbutamide and 200 ng/mL labetalol in 100% CH3CN) were added to precipitate unwanted proteins. After mixing thoroughly, the quenched aliquots were centrifuged at 4,000 rpm for 20 min. Aliquots (100 μL) of supernatant were transferred to a new plate. The samples were shaken at 800 rpm for 10 min before performing LC-MS/MS analysis.
The analytes were detected by a multiple reaction monitoring method using a SCIEX Triple Quad 6500+ system equipped with an ACQUITY UPLC HSS T3 column (100 Å, 1.8 μm, 2.1 mm×30 mm). Mobile phase A: water with 0.1% formic acid; Mobile phase B: CH3CN with 0.1% formic acid.
(§1) The % remaining of test compound after incubation in plasma was calculated using the following equation:
(§2) % Remaining=100×(PAR(t)/PAR(t0)), where PAR is the peak area ratio of analyte versus internal standard (IS)

[2] = biological target: T1, Recombinant Human EphA2 Fc Protein (Homo sapiens, UniProt P29317); test: Interaction analysis (kinetics, KD) of peptides and conjugates against EphA2 by SPR, Biacore T200, single-cycle kinetics (Examples B15 and B22); type: binding
T1 construct: purchased Elabscience
T1 sequence (P29317 24-534 limits assumed): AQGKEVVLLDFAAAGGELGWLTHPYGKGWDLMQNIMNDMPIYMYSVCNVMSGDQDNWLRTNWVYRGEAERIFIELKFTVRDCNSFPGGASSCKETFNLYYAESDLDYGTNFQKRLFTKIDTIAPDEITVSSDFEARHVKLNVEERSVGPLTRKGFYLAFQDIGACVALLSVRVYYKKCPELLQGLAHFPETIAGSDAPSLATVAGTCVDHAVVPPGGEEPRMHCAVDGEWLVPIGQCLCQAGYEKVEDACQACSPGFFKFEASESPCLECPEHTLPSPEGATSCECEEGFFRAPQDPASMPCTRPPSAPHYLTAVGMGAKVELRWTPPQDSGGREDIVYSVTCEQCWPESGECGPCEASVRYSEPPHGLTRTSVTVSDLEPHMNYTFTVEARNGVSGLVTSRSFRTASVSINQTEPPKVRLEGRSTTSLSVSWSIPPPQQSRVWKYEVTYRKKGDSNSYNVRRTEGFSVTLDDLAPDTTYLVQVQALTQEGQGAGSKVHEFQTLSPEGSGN
Procedure, shortened: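 Biacore T200 SPR with Fc-tagged human EphA2 captured via anti-human antibody; running buffer HBS-P+ pH 7.4 with 1% DMSO, 25 °C. Five serial dilutions of peptide or conjugate run by single-cycle kinetics; KD from ka and kd after baseline subtraction.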

[3] = Plasma stability (% remaining and T1/2 of test compound in human plasma; Table C1); type: in vitro ADME; conditions: for % Remaining Human: 0 min; for remaining at 2 h: 120 min
Experimental: as §1, §2

[4] = conjugates, Biacore T200 according to Example B15, Table B16, read-out: SPR Kd

Compound	% Remaining Mouse [1]	remaining at 2 h, 2 µM [1]	half-life at 2 µM [1]	Kd [2, 4]	half-life [3]	% Remaining Human [3]	remaining at 2 h [3]	Kd [2]
CC(C)C[C@@H]1NC(=O)[C@H](CC(N)=O)NC(=O)[C@H](Cc2ccccc2)N(C)C(=O)[C@@H](C)NC(=O)CSC[C@@H](C(=O)NCCC(=O)N[C@H](CCCCNC(=O)COCCOCCNC(=O)CCOCCOCCOCCOCCOCCOCCOCCOCCNC(=O)CN2CCN(CC(=O)O)CCN(CC(=O)O)CCN(CC(=O)O)CC2)C(N)=O)NC(=O)[C@H](CCC(=O)O)NC(=O)[C@H]([C@@H](C)O)NC(=O)[C@H](Cc2cn(C)c3ccccc23)NC(=O)[C@H](C(C)C)NC(=O)[C@H](Cc2cn(C)c3ccccc23)NC(=O)[C@H](Cc2ccccc2)N(C)C(=O)[C@H](CCCC(=O)O)NC1=O.[Lu+3] [PDC_EphA2-00001417-C306] ({CH2CO}-[dA][NMeF]NL[Aad][NMeF][Trp(1-Me)]V[Trp(1-Me)]TEC[βAla][dK]([AEEA-PEG8-DOTA])-NH2; thioether N-12)	100%	91%	> 289 min	1 to 10 nM	> 4.82 h	100%	99%	
CC(C)C[C@@H]1NC(=O)[C@H](CC(N)=O)NC(=O)[C@H](Cc2cccnc2)N(C)C(=O)[C@@H](C)NC(=O)CSC[C@@H](C(=O)N[C@H](CCCCNC(=O)CN2CCN(CC(=O)O)CCN(CC(=O)O)CCN(CC(=O)O)CC2)C(N)=O)NC(=O)[C@H](CCCC(N)=O)NC(=O)[C@H]([C@@H](C)O)NC(=O)[C@H](Cc2cn(C)c3ccccc23)NC(=O)[C@H](CCCCNC(=O)N2CCN(CC(=O)O)CC2)NC(=O)[C@H](Cc2cn(C)c3ccccc23)NC(=O)[C@H](Cc2ccccc2)N(C)C(=O)[C@H](CCCC(N)=O)NC1=O.[Lu+3] [PDC_EphA2-00008093-C302] ({CH2CO}-[dA][NMe3Pal]NL[Aad](NH2)[NMeF][Trp(1-Me)]K([CO-Piperazinyl(4-CH2COOH)])[Trp(1-Me)]T[Aad](NH2)C[dK](DOTA)-NH2; thioether N-12)	100.0%	101%	> 289 min	< 1 nM	> 4.82 h	100.0%	102%	
CC(C)C[C@@H]1NC(=O)[C@H](CC(N)=O)NC(=O)[C@H](Cc2cccnc2)N(C)C(=O)[C@@H](C)NC(=O)CSC[C@@H](C(=O)N[C@H](CCCCNC(=O)CN(C)C(=O)CN(C)C(=O)CN(C)C(=O)CN(C)C(=O)CN(C)C(=O)CN(C)C(=O)CN(C)C(=O)CN(C)C(=O)CN(C)C(=O)CN(C)C(=O)CCNC(=O)CN2CCN(CC(=O)O)CCN(CC(=O)O)CCN(CC(=O)O)CC2)C(N)=O)NC(=O)[C@H](CCCC(N)=O)NC(=O)[C@H]([C@@H](C)O)NC(=O)[C@H](Cc2cn(C)c3ccccc23)NC(=O)[C@H](CCCCNC(=O)N2CCN(CC(=O)O)CC2)NC(=O)[C@H](Cc2cn(C)c3ccccc23)NC(=O)[C@H](Cc2ccccc2)N(C)C(=O)[C@H](CCCC(N)=O)NC1=O.[Lu+3] [PDC_EphA2-00008093-C310]	100.0%	107%	> 289 min	< 1 nM	> 4.82 h	100.0%	99%	
C[C@H]1NC(=O)CSC[C@@H](C(N)=O)NC(=O)[C@H](CCCCNC(=O)[C@@H](CCC(=O)O)NC(=O)CN2CCN3CCN4CCN(CC2)CC(=O)[O][Lu]([O]C(=O)C3)[O]C(=O)C4)NC(=O)[C@H]([C@@H](C)O)NC(=O)[C@H](Cc2cn(C)c3ccccc23)NC(=O)[C@H](CCCCNC(=O)N2CCN(CC(=O)O)CC2)NC(=O)[C@H](Cc2cn(C)c3c(Cl)cccc23)NC(=O)[C@H](CCC(=O)O)N(C)C(=O)[C@H](CCCC(N)=O)NC(=O)[C@H](C2CCC2)NC(=O)[C@H](CC(N)=O)NC(=O)[C@H](Cc2cccnc2)N(C)C1=O [PDC_EphA2-00027128] ({CH2CO}-[dA][NMe3Pal]N[Gly(cBu)][Aad](NH2)[NMeE][Trp(1-Me,7-Cl)]K([CO-Piperazinyl(4-CH2COOH)])[Trp(1-Me)]TK([dE-DOTA(Lu)])C-NH2; thioether N-12)								< 1 nM
C[C@H]1NC(=O)CSC[C@@H](C(N)=O)NC(=O)[C@H](CCCCNC(=O)[C@@H](Cc2ccccc2)NC(=O)CN2CCN(CC(=O)O)CCN(CC(=O)O)CCN(CC(=O)O)CC2)NC(=O)[C@H]([C@@H](C)O)NC(=O)[C@H](Cc2cn(C)c3ccccc23)NC(=O)[C@H](CCCCNC(=O)N2CCN(CC(=O)O)CC2)NC(=O)[C@H](Cc2cn(C)c3c(Cl)cccc23)NC(=O)[C@H](CCC(=O)O)N(C)C(=O)[C@H](CCCC(N)=O)NC(=O)[C@H](C2CCC2)NC(=O)[C@H](CC(N)=O)NC(=O)[C@H](Cc2cccnc2)N(C)C1=O.[Lu+3] [PDC_EphA2-00027129] ({CH2CO}-[dA][NMe3Pal]N[Gly(cBu)][Aad](NH2)[NMeE][Trp(1-Me,7-Cl)]K([CO-Piperazinyl(4-CH2COOH)])[Trp(1-Me)]TK([dF-DOTA])C-NH2; thioether N-12)				< 1 nM				
C[C@H]1NC(=O)CSC[C@@H](C(=O)N[C@H](CCC(=O)O)C(N)=O)NC(=O)[C@H](CCCC(N)=O)NC(=O)[C@H]([C@@H](C)O)NC(=O)[C@H](Cc2cn(C)c3ccccc23)NC(=O)[C@H](CCCCNC(=O)N2CCN(CC(=O)O)CC2)NC(=O)[C@H](Cc2cn(C)c3c(Cl)cccc23)NC(=O)[C@H](CCC(=O)O)N(C)C(=O)[C@H](CCCCNC(=O)[C@@H](CC(C)(C)C)NC(=O)CN2CCN3CCN4CCN(CC2)CC(=O)[O][Lu]([O]C(=O)C3)[O]C(=O)C4)NC(=O)[C@H](C2CCC2)NC(=O)[C@H](CC(N)=O)NC(=O)[C@H](Cc2cccnc2)N(C)C1=O [PDC_EphA2-00027130] ({CH2CO}-[dA][NMe3Pal]N[Gly(cBu)]K([d(tBuAla)-DOTA(Lu)])[NMeE][Trp(1-Me,7-Cl)]K([CO-Piperazinyl(4-CH2COOH)])[Trp(1-Me)]T[Aad](NH2)C[dE]-NH2; thioether N-12)								< 1 nM
C[C@H]1NC(=O)CSC[C@@H](C(N)=O)NC(=O)[C@H](CCCCNC[C@@H](CC(C)(C)C)NC(=O)CN2CCN3CCN4CCN(CC2)CC(=O)[O][Lu]([O]C(=O)C3)[O]C(=O)C4)NC(=O)[C@H]([C@@H](C)O)NC(=O)[C@H](Cc2cn(C)c3ccccc23)NC(=O)[C@H](CCCCNC(=O)N2CCN(CC(=O)O)CC2)NC(=O)[C@H](Cc2cn(C)c3ccccc23)NC(=O)[C@H](CCC(=O)O)N(C)C(=O)[C@H](CCCC(N)=O)NC(=O)[C@H](C2CCC2)NC(=O)[C@H](CC(N)=O)NC(=O)[C@H](Cc2cccnc2)N(C)C1=O [PDC_EphA2-00027131] ({CH2CO}-[dA][NMe3Pal]N[Gly(cBu)][Aad](NH2)[NMeE][Trp(1-Me)]K([CO-Piperazinyl(4-CH2COOH)])[Trp(1-Me)]T[X4](DOTA(Lu))C-NH2; thioether N-12)								< 1 nM
